Data from US8524947B2, “Acylsulfonamides and processes for producing the same” (University of South Florida, priority 2008, dated 2013).

Key:
Bcl-XL [1] = molecular target: T1, Bcl-XL (Homo sapiens, UniProt Q07817); test: Suppression of Bcl-XL-templated incubations of (SZ4) and (TA2) by BH3 peptides (LC/MS-SIM); assay type: biochemical; conditions: for amount of acylsulfonamide (SZ4TA2) in Bcl-XL incubations containing the peptide: compared to the Bcl-XL incubations containing wild type Bak BH3 and Bim peptides
Protocol: In a 96-well plate, one thio acid building block (1 μL of a 2 mM solution in methanol) and one sulfonyl azide building block (1 μL of a 2 mM solution in methanol) were added to a solution of Bcl-XL (98 μL of a 2 μM Bcl-XL solution in buffer (58 mM Na2HPO4, 17 mM NaH2PO4, 68 mM NaCl, 1 mM NaN3, pH=7.40)). The 96-well plate was sealed and incubated at 38.5° C. for six hours. The incubation samples were then subjected to liquid chromatography combined with mass spectrometry analysis in the selected ion mode (LC-MS-SIM, Zorbax SB-C18 preceded by a Phenomenex C18 guard column, electrospray ionization and mass spectroscopic detection in the positive selected ion mode, tuned to the expected molecular mass of the product). The TGS hit compound was identified by the mass and retention time. As a control, identical building block combinations were incubated in buffer without Bcl-XL and subjected to LC/MS-SIM analysis. Comparison of the LC-MS-SIM chromatograms of these control incubations with the chromatograms of the Bcl-XL containing incubations allows to determine whether the protein is templating the corresponding amidation reactions or not. For the Bcl-XL containing incubation sample showing acylsulfonamide formation, a second control has been undertaken. Synthetically prepared acylsulfonamide was subjected to LC/MS-SIM analysis and the retention time was compared with the retention time identified in the Bcl-XL containing incubation.
Additional control experiments have been performed to test whether the Bcl-XL-templated reaction occurs at the BH3 binding site on Bcl-XL. Reactive building blocks (SZ4) and (TA2) were incubated with Bcl-XL and pro-apoptotic Bak BH3 peptide. Bak is one of the natural Bcl-XL ligands and theoretically competes with the reactive building blocks for binding on Bcl-XL during the incubations. The influence of Bak BH3 peptide on the Bcl-XL-templated reaction was studied at different ratios of Bak BH3 peptide and Bcl-XL (FIG. 10).
Additional control experiments have been performed with Bim, mutant Bim, and mutant Bak. […]

Bcl-XL [2] = molecular target: T1, Bcl-XL; conditions: compared to wildtype Bak BH3 and Bim peptides; cited from earlier work

T1 sequence (Q07817 whole entry): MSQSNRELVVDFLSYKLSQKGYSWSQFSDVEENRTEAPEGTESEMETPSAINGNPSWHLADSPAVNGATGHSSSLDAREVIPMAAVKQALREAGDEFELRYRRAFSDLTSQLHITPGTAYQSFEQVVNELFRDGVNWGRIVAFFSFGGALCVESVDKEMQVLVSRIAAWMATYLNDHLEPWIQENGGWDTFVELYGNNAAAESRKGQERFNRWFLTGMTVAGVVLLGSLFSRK

| Bcl-XL-templated reaction (formation of SZ4TA2) (Bcl-XL [1]; 20 μM Bak BH3 peptide, (SZ4) and (TA2) with Bcl-XL, compared to the Bcl-XL incubation without Bak BH3) | amount of acylsulfonamide (SZ4TA2) in Bcl-XL incubations containing the peptide (Bcl-XL [1]) | Substance | affinity towards Bcl-XL (Bcl-XL [2]) |
| --- | --- | --- | --- |
| significantly suppressed |  | Bak BH3 peptide: pro-apoptotic Bak BH3 peptide, a natural Bcl-XL ligand; sequence CMGQVGRQLAIIGDDINRRYDS |  |
|  | increased amount | mutant Bak: mutant Bak BH3 peptide; sequence CMGQVGRQAAIIGADINRRYDS | lower affinity |
|  | increased amount | mutant Bim: mutant Bim BH3 peptide; sequence CEIWIAQEARRIGAEFNAYYAR | lower affinity |
